B1: ILP1 split-YFP fusion for BiFC (ILP1-nYFP and ILP1-cYFP) (natural protein)
chain: MGSNRPKNFRRRGDDGGDEIDGKVATPSSKPTSTLSSSKPKTLSASAPKKKLLSFADDEEEEEDGAPRVTIKPKNGRDRVKSSSRLGVSGSSHRHSSTKERRPASSNVLPQAGSYSKEALLELQKNTRTLPYSRSSANAEPKVVLKGLIKPPQDHEQQSLKDVVKQVSDLDFDEEGEEEQHEDAFADQAAIIRAKKERMRQSRSAPAPDYISLDGGIVNHSAVEGVSDEDADFQGIFVGPRPQKDDKKGVFDFGDENPTAKETTTSSIYEDEDEEDKLWEEEQFKKGIGKRMDEGSHRTVTSNGIGVPLHSKQQTLPQQQPQMYAYHAGTPMPNVSVAPTIGPATSVDTLPMSQQAELAKKALKDNVKKLKESHAKTLSSLTKTDENLTASLMSITALESSLSAAGDKYVFMQKLRDFISVICDFMQNKGSLIEEIEDQMKELNEKHALSILERRIADNNDEMIELGAAVKAAMTVLNKHGSSSSVIAAATGAALAASTSIRQQMNQPVKLDEFGRDENLQKRREVEQRAAARQKRRARFENKRASAMEVDGPSLKIEGESSTDESDTETSAYKETRDSLLQCADKVFSDASEEYSQLSKVKARFERWKRDYSSTYRDAYMSLTVPSIFSPYVRLELLKWDPLHQDVDFFDMKWHGLLFDYGKPEDGDDFAPDDTDANLVPELVEKVAIPILHHQIVRCWDILSTRETRNAVAATSLVTNYVSASSEALAELFAAIRARLVEAIAAISVPTWDPLVLKAVPNTPQVAAYRFGTSVRLMRNICMWKDILALPVLENLALSDLLFGKVLPHVRSIASNIHDAVTRTERIVASLSGVWTGPSVTRTHSRPLQPLVDCTLTLRRILEKRLGSGLDDAETTGLARRLKRILVELHEHDHAREIVRTFNLKEAV

Key:
[1] = molecular target: B1; assay: split reporter
PRP43b-cYFP = PRP43b-cYFP (Arabidopsis thaliana, UniProt O22899 1-729); assay: split reporter
Chain of PRP43b-cYFP (O22899 whole entry): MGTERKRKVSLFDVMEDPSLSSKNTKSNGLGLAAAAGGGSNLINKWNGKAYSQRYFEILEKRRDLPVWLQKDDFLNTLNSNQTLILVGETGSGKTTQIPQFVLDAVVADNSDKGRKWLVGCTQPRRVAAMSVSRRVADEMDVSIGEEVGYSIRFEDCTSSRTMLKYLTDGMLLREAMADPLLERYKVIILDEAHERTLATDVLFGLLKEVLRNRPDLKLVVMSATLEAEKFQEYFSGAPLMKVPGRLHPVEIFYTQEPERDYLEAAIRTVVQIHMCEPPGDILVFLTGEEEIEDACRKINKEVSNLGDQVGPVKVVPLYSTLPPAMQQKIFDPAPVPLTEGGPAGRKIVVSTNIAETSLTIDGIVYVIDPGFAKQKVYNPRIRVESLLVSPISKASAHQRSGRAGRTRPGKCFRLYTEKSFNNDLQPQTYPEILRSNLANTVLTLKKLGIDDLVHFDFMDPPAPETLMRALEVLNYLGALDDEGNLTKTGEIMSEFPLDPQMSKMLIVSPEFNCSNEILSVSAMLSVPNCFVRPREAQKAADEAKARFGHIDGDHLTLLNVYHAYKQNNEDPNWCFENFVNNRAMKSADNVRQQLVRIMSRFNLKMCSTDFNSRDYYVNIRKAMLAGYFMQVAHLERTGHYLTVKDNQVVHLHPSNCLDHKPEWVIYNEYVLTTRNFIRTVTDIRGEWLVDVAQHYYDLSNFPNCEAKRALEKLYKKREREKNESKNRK

| positive BiFC ratio (percent of protoplasts) [1] | positive BiFC ratio (percent of protoplasts) (PRP43b-cYFP) | Binder |
| --- | --- | --- |
| 41.4% | 14.7% | NTR1 split-YFP fusion for BiFC (NTR1-nYFP) (natural protein) not shown |
| – | 1.4% | B1 |

Reference: PMC6736097 (Nucleic Acids Research, 2019)
